Assay results reported in patent US20250382363A1 (NUMAB THERAPEUTICS, published 2025).
Residue numbers refer to the chain shown, from its start. Numbers in names are those of the source. Each block holds one binder with its values, some of them ahead of it.

What was measured:
[1] = molecular target: pre-existing anti-drug antibodies (ADA) present in human sera; experiment: pre-existing ADA ELISA, scFv coated, human sera unspiked vs spiked
[2] = molecular target: T1, human a-PD-L1 Fc (Sino Biological, 10084-H02H, LC11NO2402) (human, UniProt Q9NZQ7 19-239); experiment: SPR, PD-L1 Fc immobilised, scFv analyte, 1:1 fit
T1 construct: Bought Fc fusion immobilised on the SPR chip; Printed as 'a-PD-L1 Fc' but used as the antigen (ligand) for the anti-PD-L1 scFvs; also called Human PD-L1; not shown: Fc part
T1 sequence (Q9NZQ7 19-239 limits assumed): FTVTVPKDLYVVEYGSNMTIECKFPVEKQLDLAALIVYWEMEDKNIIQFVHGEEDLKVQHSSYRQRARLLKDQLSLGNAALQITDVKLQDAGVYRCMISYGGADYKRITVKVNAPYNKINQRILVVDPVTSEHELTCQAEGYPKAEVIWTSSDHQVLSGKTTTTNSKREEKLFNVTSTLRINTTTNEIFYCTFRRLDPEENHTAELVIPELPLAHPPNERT
Procedure: (§1) The mutation variants were then injected at concentrations of 10 nM, 2 nM and 0.4 nM over the ligand-immobilized and reference spots. The wild type variants were used as a control, while an empty spot was used as reference.
(§2) After each cycle with analyte, the surface was regenerated with a 3M MgCl₂ solution, thereby allowing the next analyte cycle to have only free ligand available. Binding affinity KD was globally calculated by the Bruker SPR software based on the binding association (kₒₙ) and dissociation (Koff) rate, by fitting a 1:1 Langmuir model to the curves obtained by the cycles with the three different concentrations of the analyte.

[3] = molecular target: T2, human a-Mesothelin (Acro Biosystems; MSN_H5223) (human, UniProt Q13421 296-580, limits assumed); experiment: SPR, mesothelin immobilised, scFv analyte, 1:1 fit
T2 construct: Bought protein immobilised on the SPR chip; Printed as 'a-Mesothelin' but used as the antigen for the anti-MSLN scFvs; also called Human MSLN; MSLN
T2 sequence (Q13421 other isoform, or with tags, fused parts or gaps limits assumed): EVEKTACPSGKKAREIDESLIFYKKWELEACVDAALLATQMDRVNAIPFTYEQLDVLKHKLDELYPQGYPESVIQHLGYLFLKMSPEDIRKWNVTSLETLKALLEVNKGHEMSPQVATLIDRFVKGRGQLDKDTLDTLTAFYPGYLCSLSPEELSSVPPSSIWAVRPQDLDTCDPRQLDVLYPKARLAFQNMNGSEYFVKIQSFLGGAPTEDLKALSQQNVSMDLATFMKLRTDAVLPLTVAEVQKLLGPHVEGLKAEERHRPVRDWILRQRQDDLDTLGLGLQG
Procedure: as §1, §2

Mean No of serum samples >30% inhibition (30% CCP) with SCP (serum samples) [1]: 1 | No of serum samples >30% inhibition (30% CCP) without SCP (serum samples) [1]: 4 | Kd [2]: 0.027 nM | n-fold to wt [2]: 0.6 fold
B1: PRO3314 (scFv 37-20-B03-sc09.1_(T101Q, T146Q)) (scFv)
scFv: DIQMTQSPASLSASVGDRVTITCQASQSIGTYLAWYQQKPGKPPKLLIYRAFILASGVPSRFSGSGSGTDFTLTISSLQPEDFATYYCQSNFYSDSTTIGPNAFGTGTKVTVLGGGGGSGGGGSGGGGSGGGGSEVQLVESGGGLVQPGGSLRLSCAASGFSFNSDYWIYWVRQAPGKGLEWIASIYGGSSGNTQYASWAQGRFTISRDNSKNTVYLQMNSLRAEDQAVYFCARGYVDYGGATDLWGQGTLVQVSS
notes: PRO2230 variant; VH substitutions, AHo numbering; also called PRO2230 T101Q-T146Q

Mean No of serum samples >30% inhibition (30% CCP) with SCP (serum samples) [1]: 0 | No of serum samples >30% inhibition (30% CCP) without SCP (serum samples) [1]: 2 | Kd [2]: 0.056 nM | n-fold to wt [2]: 1.1 fold
B2: PRO3340 (scFv 37-20-B03-sc09.1_(T101S, T146K)) (scFv)
scFv: B1 scFv with Q227S, Q253K
notes: PRO2230 variant; VH substitutions, AHo numbering; also called PRO2230 T101S-T146K

Mean No of serum samples >30% inhibition (30% CCP) with SCP (serum samples) [1]: 0 | No of serum samples >30% inhibition (30% CCP) without SCP (serum samples) [1]: 1 | Kd [2]: 0.038 nM | n-fold to wt [2]: 0.8 fold
B3: PRO3342 (scFv 37-20-B03-sc09.1_(T101K, T146D)) (scFv)
scFv: B1 scFv with Q227K, Q253D
notes: PRO2230 variant; VH substitutions, AHo numbering; also called PRO2230 T101K-T146D

Mean No of serum samples >30% inhibition (30% CCP) with SCP (serum samples) [1]: 0 | No of serum samples >30% inhibition (30% CCP) without SCP (serum samples) [1]: 0 | Kd [2]: 0.035 nM | n-fold to wt [2]: 0.7 fold
B4: PRO3339 (scFv 37-20-B03-sc09.1_(T101N, T146Q)) (scFv)
scFv: B1 scFv with Q227N
notes: PRO2230 variant; VH substitutions, AHo numbering; also called PRO2230 T101N-T146Q

Mean No of serum samples >30% inhibition (30% CCP) with SCP (serum samples) [1]: 0 | No of serum samples >30% inhibition (30% CCP) without SCP (serum samples) [1]: 4 | Kd [2]: 0.051 nM | n-fold to wt [2]: 1 fold
B5: PRO3341 (scFv 37-20-B03-sc09.1_(T101S, T146S)) (scFv)
scFv: B1 scFv with Q227S, Q253S
notes: PRO2230 variant; VH substitutions, AHo numbering; also called PRO2230 T101S-T146S

Mean No of serum samples >30% inhibition (30% CCP) with SCP (serum samples) [1]: 0 | No of serum samples >30% inhibition (30% CCP) without SCP (serum samples) [1]: 0 | Kd [2]: 0.029 nM | n-fold to wt [2]: 0.6 fold
B6: PRO3343 (scFv 37-20-B03-sc09.1_(T101R, T146E)) (scFv)
scFv: B1 scFv with Q227R, Q253E
notes: PRO2230 variant; VH substitutions, AHo numbering; also called PRO2230 T101R-T146E

Mean No of serum samples >30% inhibition (30% CCP) with SCP (serum samples) [1]: 0 | No of serum samples >30% inhibition (30% CCP) without SCP (serum samples) [1]: 0 | Kd [2]: 0.021 nM | n-fold to wt [2]: 0.4 fold
B7: PRO3338 (scFv 37-20-B03-sc09.1_(T101K, T146Q)) (scFv)
scFv: B1 scFv with Q227K
notes: PRO2230 variant; VH substitutions, AHo numbering; also called PRO2230 T101K-T146Q

Mean No of serum samples >30% inhibition (30% CCP) with SCP (serum samples) [1]: 1 | No of serum samples >30% inhibition (30% CCP) without SCP (serum samples) [1]: 7 | Kd [2]: 0.042 nM | n-fold to wt [2]: 0.9 fold
B8: PRO3317 (scFv 37-20-B03-sc09.1_(T101Q)) (scFv)
scFv: B1 scFv with Q253T
notes: PRO2230 variant; VH substitution, AHo numbering; also called PRO2230 T101Q

Mean No of serum samples >30% inhibition (30% CCP) with SCP (serum samples) [1]: 8 | No of serum samples >30% inhibition (30% CCP) without SCP (serum samples) [1]: 16 | Kd [3]: 1.8 nM | n-fold to wt [3]: 1 fold
B9: PRO1922 (scFv 54-21-H03-sc01) (scFv)
scFv: DIQMTQSPSSLSASVGDRVTITCQASESIYSSLAWYQQKPGKAPKLLIYLASTLASGVPSRFSGSGSGTDFTLTISSLQPEDFATYYCQSTDYTTSTHRNSFGTGTKVTVLGGGGGSGGGGSGGGGSGGGGSEVQLVESGGGLVQPGGSLRLSCAASGFSFSTTYYMCWVRQAPGKGLEWIGCTNTASSVRTYYATWAKGRFTISRDNSKNTVYLQMNSLRAEDTAVYYCARDMGFADYALNLWGQGTLVTVSS
notes: also called PRO1922 wt; a-MSLN wt

Mean No of serum samples >30% inhibition (30% CCP) with SCP (serum samples) [1]: 2 | No of serum samples >30% inhibition (30% CCP) without SCP (serum samples) [1]: 4 | Kd [3]: 3.3 nM | n-fold to wt [3]: 1.8 fold
B10: PRO2943 (scFv 54-21-H03-sc01_(T146E)) (scFv)
scFv: B9 scFv with T251E
notes: PRO1922 variant; VH substitution, AHo numbering; also called PRO1922 T146E

Mean No of serum samples >30% inhibition (30% CCP) with SCP (serum samples) [1]: 2 | No of serum samples >30% inhibition (30% CCP) without SCP (serum samples) [1]: 6 | Kd [3]: 1.5 nM | n-fold to wt [3]: 0.8 fold
B11: PRO2994 (scFv 54-21-H03-sc01_(P48A)) (scFv)
scFv: B9 scFv with P174A
notes: PRO1922 variant; VH substitution, AHo numbering; also called PRO1922 P48A

Mean No of serum samples >30% inhibition (30% CCP) with SCP (serum samples) [1]: 0 | No of serum samples >30% inhibition (30% CCP) without SCP (serum samples) [1]: 0 | Kd [3]: 2.5 nM | n-fold to wt [3]: 1.4 fold
B12: PRO3319 (scFv 54-21-H03-sc01_(L12A, T101S, L144A, T146R)) (scFv)
scFv: B9 scFv with L143A, T225S, L249A, T251R
notes: PRO1922 variant; VH substitutions, AHo numbering; also called PRO1922 L12A-T101S-L144A-T146R

Mean No of serum samples >30% inhibition (30% CCP) with SCP (serum samples) [1]: 0 | No of serum samples >30% inhibition (30% CCP) without SCP (serum samples) [1]: 0 | Kd [3]: 2.3 nM | n-fold to wt [3]: 1.3 fold
B13: PRO3318 (scFv 54-21-H03-sc01_(L12A, T101R, L144A, T146Q)) (scFv)
scFv: B9 scFv with L143A, T225R, L249A, T251Q
notes: PRO1922 variant; VH substitutions, AHo numbering; also called PRO1922 L12A-T101R-L144A-T146Q

Mean No of serum samples >30% inhibition (30% CCP) with SCP (serum samples) [1]: 0 | No of serum samples >30% inhibition (30% CCP) without SCP (serum samples) [1]: 0 | Kd [3]: 1.9 nM | n-fold to wt [3]: 1.1 fold
B14: PRO2941 (scFv 54-21-H03-sc01_(T146K)) (scFv)
scFv: B9 scFv with T251K
notes: PRO1922 variant; VH substitution, AHo numbering; also called PRO1922 T146K
